Experimental findings from article PMC5705077 (Biochemistry, 2017) are described below.

The target of experiment [1] is T1, MBP-Brh2^106–1075 (Ustilago maydis, UniProt Q8NJ74 106-1075).
T1 sequence (looked up): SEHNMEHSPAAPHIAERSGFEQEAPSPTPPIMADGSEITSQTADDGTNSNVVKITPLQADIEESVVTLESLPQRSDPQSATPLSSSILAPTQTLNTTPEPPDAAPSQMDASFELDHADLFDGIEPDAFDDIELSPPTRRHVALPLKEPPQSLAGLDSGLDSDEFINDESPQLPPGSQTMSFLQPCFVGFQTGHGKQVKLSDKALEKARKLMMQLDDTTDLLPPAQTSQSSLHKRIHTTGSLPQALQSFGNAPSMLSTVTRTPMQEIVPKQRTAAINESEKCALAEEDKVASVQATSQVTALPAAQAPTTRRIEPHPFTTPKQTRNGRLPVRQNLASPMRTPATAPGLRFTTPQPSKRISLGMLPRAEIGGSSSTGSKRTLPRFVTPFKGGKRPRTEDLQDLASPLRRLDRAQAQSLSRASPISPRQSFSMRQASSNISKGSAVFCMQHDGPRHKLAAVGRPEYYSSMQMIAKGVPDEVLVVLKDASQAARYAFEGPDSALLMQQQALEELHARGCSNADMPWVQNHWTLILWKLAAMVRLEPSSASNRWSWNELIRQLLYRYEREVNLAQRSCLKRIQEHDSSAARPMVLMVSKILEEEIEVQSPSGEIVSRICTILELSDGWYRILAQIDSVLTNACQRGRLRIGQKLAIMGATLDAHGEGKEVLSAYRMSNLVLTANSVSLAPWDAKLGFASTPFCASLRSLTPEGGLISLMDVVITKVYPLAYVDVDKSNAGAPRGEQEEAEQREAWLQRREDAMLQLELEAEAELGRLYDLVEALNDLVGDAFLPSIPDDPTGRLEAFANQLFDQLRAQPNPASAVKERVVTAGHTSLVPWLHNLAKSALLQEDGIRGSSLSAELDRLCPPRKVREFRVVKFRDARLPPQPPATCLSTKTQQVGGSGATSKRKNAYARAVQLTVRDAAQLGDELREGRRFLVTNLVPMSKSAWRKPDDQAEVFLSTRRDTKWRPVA
Description: pull-down.

In experiment [2] the target is T1, MBP-Brh2^106–1075. Put plainly: pull-down. The source holds these as a separate data set.

B1: Rad51 (natural protein, UniProt Q99133 1-339, looked up)
chain: MSQNAQDPAQIGEDDMGEAFGPLPVSKLEEFGISSSDCKKLAESGYNTVESIAFTPKKQLLLVKGVSEAKADKILAEAARLVPMGFTTATEFHARRNELISITTGSKNLDAILGGGMETGSITELYGEFRTGKSQLCHTLAVTCQLPVDMGGGEGKCLYIDTENTFRPTRLLAVAERFGLNGEEVLDNVAYARAYNADHQLQLLMQASAMMAESRFSLLIVDSLTSLYRTDFSGRGELSARQMHLAKFLRGLMRLADEFGVAVVITNQVVAQVDGATAFTADAKKPIGGNIVAHASTTRLSLRKGRGNQRICRIADSPCLPEADAVFAIGPEGIIDPVD
On to B1, for which the “stoichiometry N” value in the experiment with MBP-Brh2^106–1075 [1] is ~2.2 Rad51 per Brh2 (mol:mol). In addition, the “fold Rad51 associated relative to the Brh2/Dss1 heterodimer” value with MBP-Brh2^106–1075 [2] was around 10 fold.

The term stoichiometry N denotes a count of units in the complex or per binding partner.
